Experimental data taken from the supplement of paper PMC12764529.
± gives the half width of the 95% confidence interval.

Experiments:
[1] = folding stability dG unfold (combined trypsin and chymotrypsin); higher = more stable
Summary of the method: (§1)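 Only designs with AlphaFold2 dimer inter-PAE above 15 were retained; each was a mini-protein under 80 residues with no cysteine, in a PA-tagged cDNA display construct. After digestion with trypsin and chymotrypsin and sequencing, K50 was inferred by Bayesian fitting of counts, and unfolding free energy was derived per protease or combined against a sequence-predicted unfolded-state K50 and a shared folded-state K50.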

[2] = folding stability dG unfold from chymotrypsin proteolysis; higher = more stable
Summary of the method: as §1

[3] = folding stability dG unfold from trypsin proteolysis; higher = more stable
Summary of the method: as §1

Sequence	folding stability dG unfold [1]	folding stability dG unfold [2]	folding stability dG unfold [3]
SAGGMKITEEAIKNFPPGRWIQFRIPDDGYMVTIRVHDPGEIKINYRKFPPGNGEPREEQEHKIPLDSAGGS [r16_163_TrROS]	0.917 ± 0.27 kcal/mol	0.825 ± 0.28 kcal/mol	0.845 ± 0.24 kcal/mol
SAGGMKITIKEDEETGEKVIEIEDEETGERVRVVFNPDGEEIEIEVPSPEVLEALKELGIEKVEVEEVSAGG [r13_511_TrROS_Hall]	0.976 ± 0.19 kcal/mol	1.07 ± 0.063 kcal/mol	0.732 ± 0.13 kcal/mol
SAGGMKIVSESTDPSVPTSYVTIEITDPKTGKKTTIKLPQDPAAGTGSPEALAKEVREKLKLPEGVELSAGG [r13_362_JUSTAS]	0.814 ± 0.073 kcal/mol	1.01 ± 0.053 kcal/mol	0.221 ± 0.083 kcal/mol
SAGGMKIVSVEVVKDEETGVYVIKLTVEDPETNETYTLEVVIKNEDGELKTITVKAKSKEDALKELLKSAGG [r13_26_TrROS_Hall]	3.1 ± 0.23 kcal/mol	3.6 ± 0.14 kcal/mol	1.85 ± 0.067 kcal/mol
SAGGMKKIKIVVKVPPNVTAEELAKALEDELKKKGYEVKVTVKVVKKPDGSLYVVIEVEIRPKNEKPSAGGS [r16_128_TrROS_Hall]	3.52 ± 0.099 kcal/mol	3.67 ± 0.075 kcal/mol	3.04 ± 0.13 kcal/mol
SAGGMKKKIVEIEIVEVKYDEETNEVTIKIKIKNENGEEIEIEVTMSKEELEKMTPEELKKLVKELLKSAGG [r13_512_TrROS_Hall]	2.12 ± 0.3 kcal/mol	2.18 ± 0.24 kcal/mol	2.16 ± 0.2 kcal/mol
SAGGMKKKLLILVDSNNPNIPLEKIKEFFKKKGFDEVETLSLENIPPEKAIELAKKEKKPLLIIPTSSAGGS [r16_94_TrMRF]	1.97 ± 0.063 kcal/mol	2.21 ± 0.04 kcal/mol	1.376 ± 0.012 kcal/mol
SAGGMKKPIKAKIKIVKFEDGYLILIELPDGKIIAFKSPEELKAALEKFPEIEITEIEIIPPEEFLKKSAGG [r13_730_TrMRF]	3.07 ± 0.22 kcal/mol	3.47 ± 0.19 kcal/mol	1.63 ± 0.067 kcal/mol
SAGGMKKYLLTLNVTLERPDSEESITLTKEVDSLEEAEKLKEEIEKKLKEEYPGRISFDVTIEEIEESAGGS [r16_475_JUSTAS]	4.13 ± 0.12 kcal/mol	4.15 ± 0.076 kcal/mol	3.72 ± 0.1 kcal/mol
SAGGMKLTPEAKKLAEELKKEGKKVKIEKKDGYYVLTVDGKVYKSKEDMEKAAKDPNVKKVIVIKLPSAGGS [r16_275_TrROS_Hall]	1.46 ± 0.18 kcal/mol	1.95 ± 0.18 kcal/mol	0.519 ± 0.13 kcal/mol
SAGGMKPKEVIEIEITLPDGRKIRIRLVKKDGKLYLFIEVPEENEEARELAEELAKKLPGVEVEVFEPSAGG [r13_34_TrROS_Hall]	3.03 ± 0.14 kcal/mol	3.26 ± 0.12 kcal/mol	2.41 ± 0.1 kcal/mol
SAGGMKTITLEEAKALAEKAAEKGETVEIEVTLPDGTVVKFKVDAKTKKVELVEVKKLPAPPEDPEKKSAGG [r13_839_TrROS_Hall]	2.68 ± 0.13 kcal/mol	3.07 ± 0.088 kcal/mol	1.12 ± 0.046 kcal/mol
SAGGMKTTLLKEEELPGGVKRKIYLTENSSGGYYYVVTVTTELEPPAESKVSVSSKKISPEELKKLLSAGGS [r16_45_JUSTAS]	3.32 ± 0.17 kcal/mol	3.55 ± 0.069 kcal/mol	2.93 ± 0.14 kcal/mol
SAGGMKTVIVRVRRDSPEVRKALEALRKAKPGEEVELTVKGKKIRIVKIEEVDGEYYVTVEIEEEEESAGGS [r16_404_TrROS_Hall]	3.75 ± 0.093 kcal/mol	3.96 ± 0.062 kcal/mol	3.39 ± 0.074 kcal/mol
SAGGMKTVTIEYWGSLPDAVVLAKKAVEEAAKNKGKTVVTLYVWEGEPDENGVPRWKPLGKYVFVVDASAGG [r13_974_TrMRF]	3.19 ± 0.1 kcal/mol	3.477 ± 0.034 kcal/mol	2.44 ± 0.092 kcal/mol
SAGGMKVATVTLLTRDPSSDRTFEVTVEVPDDIVEKGDIEEAIARAKQLAEERGYPILEVEVEVKEPPSAGG [r13_954_JUSTAS]	0.922 ± 0.12 kcal/mol	0.625 ± 0.12 kcal/mol	1.13 ± 0.046 kcal/mol

Sequence	folding stability dG unfold [1]	folding stability dG unfold [2]	folding stability dG unfold [3]
SAGGMKVEIEIEEEPETGKVKITIKIDDVEIEIEATEEEIEKLIEEIEKIKAEPKLTEDGKLVPVIGSAGGS [r8_332_TrMRF]	1.92 ± 0.3 kcal/mol	1.8 ± 0.29 kcal/mol	1.94 ± 0.24 kcal/mol
SAGGMKVEIIRKDGKKVTLEGMTLEELLALLPEGEEYVIKVEVTVVDEKTKKKETVELTFTVPVEDLSAGGS [r16_806_TrROS_Hall]	2.04 ± 0.075 kcal/mol	2.47 ± 0.053 kcal/mol	1.18 ± 0.047 kcal/mol
SAGGMKVEVEVDPETGELYLKIYFPETGEVALVKIDPKTKTAEVVGSTDFVKEALPELGINNPTLVPGSAGG [r13_511_TrMRF]	1.43 ± 0.061 kcal/mol	1.59 ± 0.088 kcal/mol	1.06 ± 0.051 kcal/mol
SAGGMKVEVVPGGGAVVVEIPFPPTPATARLVISFHPDGTVTADLEPHPELPAELRAKLVELARELLGSAGG [r13_139_TrMRF]	2.07 ± 0.048 kcal/mol	2.31 ± 0.032 kcal/mol	1.6 ± 0.02 kcal/mol
SAGGMKVYKISFPNATVTYEEETGKVTINPPDGSTKVIEISPDISIEEVAKKLAEELGFTEATITPEPSAGG [r13_852_JUSTAS]	1.48 ± 0.068 kcal/mol	1.36 ± 0.057 kcal/mol	1.59 ± 0.095 kcal/mol
SAGGMKVYKTPDKITIELTHPETGEKAKGTYTPSTGKMTITYPNKLTVTISVDSNGNLTPVEKKPLLSAGGS [r16_127_JUSTAS]	0.626 ± 0.069 kcal/mol	0.577 ± 0.1 kcal/mol	0.592 ± 0.046 kcal/mol
SAGGMKYLIKIEVDGKEIEIEAESLEEAEELAKKLEEEGIEIEVKKIEIYELPEEEEEEEEEKKKKESAGGS [r8_336_TrROS_Hall]	1.85 ± 0.21 kcal/mol	2.24 ± 0.08 kcal/mol	0.249 ± 0.11 kcal/mol
SAGGMKYVLKIEITFKKPSGPPEKKIILVEFDPDFPDIPLEEAAERVLNEIAPKYGDEAKVSEISPVSAGGS [r8_101_TrMRF]	2 ± 0.13 kcal/mol	2.35 ± 0.066 kcal/mol	1.3 ± 0.054 kcal/mol
SAGGMLIVRITVDLTFPVIHPDNRPSLVSVPLPITLPFSTPEEARAFAEALSKLFDAPVSLEVLPPDGSAGG [r13_320_TrMRF]	4.16 ± 0.12 kcal/mol	4.4 ± 0.094 kcal/mol	3.62 ± 0.13 kcal/mol
SAGGMLKFTDPKTGNEYTVTEYDPNTGVYLVTTTYPDGTTTTREFPGSLEDIVKHLEEEGYPTTVVGSAGGS [r16_748_JUSTAS]	3.24 ± 0.069 kcal/mol	3.38 ± 0.1 kcal/mol	2.83 ± 0.12 kcal/mol
SAGGMLKIKVELFYPDGSTRTLPVPEEIQKEIVEALKKGEKIPEKPKKELEDIAKKEGYTIKIIELLSAGGS [r8_159_JUSTAS]	1.3 ± 0.18 kcal/mol	1.41 ± 0.11 kcal/mol	0.751 ± 0.051 kcal/mol
SAGGMLLVEAPDGTTVEVTPEQAADLTPGAVVRHPSGDVWTYNPANDETVRIPWVSPAEVERAVAELSSAGG [r13_962_JUSTAS]	-0.132 ± 0.043 kcal/mol	-0.361 ± 0.12 kcal/mol	-0.0974 ± 0.038 kcal/mol
SAGGMLPDTLKLAREIAKELGINRIEPLESGEVVLYLPEDKVIVIDTINGIPRVRIYNKDEWIEIPISAGGS [r16_296_TrMRF]	4.26 ± 0.15 kcal/mol	4.56 ± 0.08 kcal/mol	3.65 ± 0.096 kcal/mol
SAGGMLVRVRFRIVEPGTGEPFEFEALLFFGEDGSFELVFPDGTRLLFPPEARIEVLDAELLDPDEASAGGS [r16_223_TrMRF]	4.61 ± 0.2 kcal/mol	4.9 ± 0.11 kcal/mol	3.96 ± 0.19 kcal/mol
SAGGMLVTFTTPDGKTVTVEVDSLEEAKKVIAEKLGLPPDTVLDVTVTDPVTGEVTSETVTIPVPVPESAGG [r13_145_JUSTAS]	3.96 ± 0.049 kcal/mol	3.99 ± 0.07 kcal/mol	3.3 ± 0.09 kcal/mol
